Measured values published in patent US12202887B2, “Eradication of bacterial biofilm using anti-amyloid monoclonal antibodies” (priority 2018, dated 2025).
Read-outs that look alike come from different tables or passages of the source.

How the values were obtained:
S. Typhimurium biofilm [1] = assay: S. Typhimurium biofilms with or without ALZ.3H3, then ampicillin or DNase for 24 hours, Syto9 imaging; format: cell-based; details: for Overall biofilm appearance: wildtype biofilms treated alone for 24 hours after biofilm establishment
Excerpt: Biofilms enhance the recalcitrance of bacteria to antibiotics (Keren et al., 2004, FEMS Microbiol Lett, 230(1):13-8, Brown et al., 1988, J Antimicrob Chemother, 22(6):777-80, Stewart, 2002, Int J Med Microbiol, 292(2):107-13). To enhance the clearance of bacterial biofilms, the structure of the biofilm was altered by employing ALZ.3H3 and then the biofilm was subjected to antibiotics to kill the bacteria within the disperse biofilm. […] an additional integral component of S. Typhimurium biofilms, wildtype or ALZ.3H3 incubated biofilms were exposed to X DNase treatment for an additional 24 hours. Biofilms were then stained with Syto9 and visualized using CSML. Excessive washing steps were avoided in aims to examine the architecture of the biofilms.

[2] = tested on: S. Typhimurium biofilm on medical grade catheters; assay: In vitro catheter assay: Salmonella biofilms grown on sterile i.v. catheters, GFP and Congo red; details: 0.5 mg/ml for 72 hours
Description: (§1) Salmonella biofilms were grown alone or in the presence of ALZ3H3 antibody upon sterile i.v. catheters. Bacteria were labeled green using GFP. Congo red was used to stain for curli amyloid fibrils. […] To investigate the combination effect of ALZ3H3 and ampicillin on biofilm growth, mice were given 1 mg/ml Ampicillin in the drinking water 24 hours prior to catheter insertion. Sterile i.v. catheters were incubated for 24 hours with Salmonella typhimurium prior to insertion into the back flanks of Balb/C mice. 24 and 28 hours after catheter insertion 100 ug of ALZ3H3 was percutaneously inserted into the lumen of the catheter. 72 hours after catheter insertion, mice were euthanized and the catheters were removed. Bacteria were labeled green using GFP. Congo red was used to stain for curli amyloid fibrils. Catheters autofluoresced green.

[3] = tested on: S. Typhimurium (STM) biofilm; assay: Colony forming units per biofilm on glass coverslips, S. Typhimurium
Description: (§2) Biofilms of S. Typhimurium (STM) or E. coli UTI89 grown in the absence or presence of 3H3 (250 ug/ml, 125 ug/ml, 50 ug/ml, 25 ug/ml, 10 ug/ml, 1 ug/ml) as well as grown with 0.5 mg/ml control A6 antibody on top of sterile glass coverslips for 72 hours at 26 C in a sterile 24 well dish. S. Typhimurium curli mutant (csgBA) and UTI89 curli mutant (csgBA) were also grown as a negative controls. In select conditions, biofilms were incubated for an additional 24 hours at 26 C with 30 ug/ml Ampicillin (Amp). The sterile glass coverslip, which was used as a surface for the biofilm to grow upon, was placed in a sterile 15 ml conical tube that contained 3 ml of sterile PBS. The biofilm was sonicated for 10 seconds at a setting of 4 using a ThermoFisher Sonic Dismembrator. Bacteria were enumerated by serial diluting 1:10 in sterile PBS and spot plating on agar plates.
(§3) Biofilms of S. Typhimurium (STM) or E. coli UTI89 grown in the absence or presence of 3H3 (250 ug/ml, 125 ug/ml, 50 ug/ml, 25 ug/ml, 10 ug/ml, 1 ug/ml) as well as grown with 0.5 mg/ml control A6 antibody on top of sterile glass coverslips for 72 hours at 26 C in a sterile 24 well dish. S. Typhimurium curli mutant (csgBA) and UTI89 curli mutant (csgBA) were also grown as a negative controls. In select conditions, biofilms were incubated for an additional 24 hours at 26 C with 30 ug/ml Ampicillin (Amp). […]

[4] = tested on: pre-established S. Typhimurium biofilms; assay: mAb added to pre-established S. Typhimurium biofilms, CSLM and particle count; format: cell-based
Description: To determine if ALZ.3H3 can reduce biofilm formation of pre-established biofilms of S. Typhimurium, 0.5 mg/ml of ALZ.3H3 was added for an additional 24 hours to a 24 hour pre-established biofilm of S. Typhimurium, or 0.5 mg/ml of ALZ.3H3 was added for 24 hours to a 48 hour pre-established biofilms. These biofilms were then compared, respectively, to a 48 and 72 hour S. Typhimurium biofilm that was not exposed to ALZ.3H3 (FIG. 2A). Biofilms were stained with Syto9 and imaged using CSML. Biofilms were not wash extensively in order determine the impact of ALZ.3H3 on biofilm architecture. […] Using the thresholding technique described earlier, the number of particles above the thickness of the wild-type S. Typhimurium were counted.

E. coli UTI89 biofilm = assay: Colony forming units per biofilm on glass coverslips, E. coli UTI89
Description: as §2, §3

[5] = tested on: tau paired helical filaments (TAU PHF) isolated from AD brain homogenates; assay: SPR binding to tau paired helical filaments; details: antibody concentration 66.7 nM
Description: FIG. 14 depicts a surface plasma resonance (SPR) analysis for binding to aggregated islet amyloid peptide IAPP and tau paired helical filaments (TAU PHF) isolated from AD brain homogenates. The antibody concentrations used in this study were 110 nM for the IAPP and 66.7 nM for the Tau-PHF.
Human mAbs were assayed by SPR for binding to aggregated islet amyloid peptide IAPP and tau paired helical filaments (TAU PHF) isolated from AD brain homogenates (FIG. 14). The antibody concentrations used in this study were 110 nM for the IAPP and 66.7 nM for the Tau-PHF.

[6] = tested on: Salmonella typhimurium catheter biofilm; assay: In vivo catheter assay: Salmonella typhimurium colonized catheters inserted into back flanks of mice
Description: as §1

S. Typhimurium biofilm [7] = assay: S. Typhimurium biofilms established in presence of mAb, Syto9 stain, CSLM, ImageJ particle count, supernatant plating; format: cell-based; details: 0.5 mg/ml
Description: After growth, biofilms were stained with Syto9 and imaged using CSLM. Three dimensional architecture was examined by creating 3D surface plots using ImageJ. […] To quantify the disperse biofilm created by treatment with ALZ.3H3, through the use of ImageJ all particles above the thickness of a wild-type S. Typhimurium ([…]) was used to set the threshold value, and these threshold parameters were applied to subsequent treatments (FIG. 1B). […] The bacteria recovered from the supernatants is representative of the loose disperse biofilm matrix that is easily dissociated from the biomass.

[8] = tested on: Histadine tagged CsgA (His-CsgA), curli; assay: Thioflavin T (ThT) fibrillization assay of His-CsgA; format: biochemical
Description: The formation of monomers into mature curli fibrils can be monitored by incubation with Thioflavin T (ThT). Fluorescence of ThT increases as it binds to amyloid fibril, allowing the amyloid formation process to be measured spectroscopically. The formation of amyloid fibers can be defined by a three stage sigmoidal curve (Dueholm et al., 2011, Biochemistry, 50(39):8281-90; Wang et al., 2007, J Biol Chem, 282(6):3713-9). In the first stage, monomeric subunits are slow to self-associate and ThT fluorescence is minimal (Naiki et al., 1991, Lab Invest, 65(1):104-10). The reaction exponential increases as monomeric seeds oligomerize and continue to elongate (Naiki et al., 1991, Lab Invest, 65(1):104-10). This process is marked by a rapid increase in ThT fluorescence (Naiki et al., 1991, Lab Invest, 65(1):104-10). The oligomers elongate into mature fibrils and Tht fluorescence peaks (Dueholm et al., 2011, Biochemistry, 50(39):8281-90; Wang et al., 2007, J Biol Chem, 282(6):3713-9). […] Histadine tagged CsgA (His-CsgA), which will naturally self-associate and fibrillize, was incubated with 0.5 mg/ml ALZ.3H3 and the fibrillization reaction was monitored using ThT. As controls synthetic peptides CsgAR4-5 and CsgAR4-5N122A were incubated with Tht and the fribrillization reaction was monitored in parallel. […]

Aβ42 conformers = target: T1, Aβ42 conformers (Homo sapiens, UniProt P05067); assay: MAb binding to Aβ42 conformers by surface plasma resonance (SPR)
T1 construct: Amyloid beta derived diffusible ligands (ADDLs), also known as globulomers, produced from Aβ42
Description: MAb binding to Aβ42 conformers was measured by surface plasma resonance (SPR) (Table 1). Calculated affinity constants (KD) were obtained using Qdat software. […] The 3H3 binding data is qualitatively most similar to the 4G1 and 6E10 mAbs.

T1 sequence (P05067 672-713 limits assumed): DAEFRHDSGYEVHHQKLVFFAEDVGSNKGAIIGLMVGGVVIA
Sequence of tau paired helical filaments (TAU PHF) isolated from AD brain homogenates (P10636 623-695 limits assumed): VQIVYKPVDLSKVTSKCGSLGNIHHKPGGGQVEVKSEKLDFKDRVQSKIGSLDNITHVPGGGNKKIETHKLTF

With CC1(C)S[C@@H]2[C@H](NC(=O)[C@H](N)c3ccccc3)C(=O)N2[C@H]1C(=O)O [ampicillin] the Overall biofilm appearance (S. Typhimurium biofilm [1]) was “no alteration in overall biofilm appearance”.

In the case of DNase, the Overall biofilm appearance (S. Typhimurium biofilm [1]) is reported as “no alteration in overall biofilm appearance”.

B1: ALZ.3H3: human monoclonal antibody with pan-amyloid binding activity; heavy chain SEQ ID NO:2, light chain SEQ ID NO:35 (antibody)
VH: MEFGLSWVFLVALLRGVQCQVQLVESGGGVVQPGRSLRLSCAASGFSFSTYGMHWVRQAPGKGLEWVAVISYDGSRKYYADTGKGRFTISRDNSKNTLYLEMNGLRAEDTAVYHCAKDLRRELGFGNRDYHYYGMDAWGQGTTVTVSSASTK
light: LTQPRSVSGSPGQSVTMSCTGTNSDIGGYNYVSWYQQHPGKAPKLMIYDVYKRPSGVPDRFSGSKSGNTASLTISGLQAEDEADYYCCSYAGTNNLIFGGGTKLTVLGQPKAAPSVTLFPPSSEELQANKATLVCLISDFYPGAVTVAWKADSSPVKAGVETTTPSKQSNNKYAASSYLSLTPEQWKSHRSYSCQV
modifications: Chemically Synthesized, ALZ.3H3 Heavy Chain; Chemically Synthesized, ALZ.3H3 Light Chain
With B1 the Catheter biofilm morphology [2] was “the biofilm was dispersed”, the “Congo red staining (curli fibers)” value [2] was “no significant staining with Congo red” and the CFU/biofilm ([3]; STM grown with 3H3 (1-250 ug/ml), 72 hours at 26 C) was “reduction of CFU/biofilm”. The CFU/biofilm ([3]; STM grown with 3H3, then 30 ug/ml Ampicillin for additional 24 hours) was “additional reduction in CFU/biofilm”, the “Number of particles above the thickness of wild-type biofilm” value ([4]; 24 hour pre-established biofilm + 0.5 mg/ml for 24 hours) was “increased the number of particles” and the Biofilm matrix architecture ([4]; 24 hour pre-established biofilm + 0.5 mg/ml for additional 24 hours, vs 48 hour biofilm) was “began to exhibit a more disperse matrix”. For the same molecule, the “Number of particles above the thickness of wild-type biofilm” value ([4]; 48 hour pre-established biofilm + 0.5 mg/ml for 24 hours) was “the number of particles increased as well”, the Biofilm matrix architecture ([4]; 48 hour pre-established biofilm + 0.5 mg/ml for additional 24 hours, vs 72 hour biofilm) was “the biofilm matrix was more disperse” and the CFU/biofilm (E. coli UTI89 biofilm; UTI89 grown with 3H3 (1-250 ug/ml), 72 hours at 26 C) was “reduction of CFU/biofilm”. The CFU/biofilm (E. coli UTI89 biofilm; UTI89 grown with 3H3, then 30 ug/ml Ampicillin for additional 24 hours) was “additional reduction in CFU/biofilm”, the “Binding to Tau PHF” value [5] was “notable for binding to Tau PHF” and the “Catheter biofilm morphology and curli” value ([6]; 100 ug percutaneously into catheter lumen, catheters removed at 72 hours) was “disperse morphology with little curli”. The “Amyloid incorporation in catheter biofilm” value ([6]; combination: 100 ug ALZ3H3 into lumen + 1 mg/ml ampicillin in drinking water) was “little to no amyloid incorporation”, the “Number of particles above the thickness of wild-type biofilm (20 μM)” value (S. Typhimurium biofilm [7]; 72 hours at 28° C.) was “significant increase in number of particles” and the Biofilm architecture (S. Typhimurium biofilm [7]; 72 hours at 28° C., 3D surface plots) was “altered the architecture of biofilm forming a disperse biofilm topography”. The “Bacteria recovered from biofilm supernatant” value (S. Typhimurium biofilm [7]; plating supernatants) was “significantly more bacteria was recovered”, the “Lag time (t0) for His-CsgA to self-associate and oligomerize” value ([8]; 0.5 mg/ml antibody, compared to synthetic peptide CsgAR4-5) was “significant increase in the lag times” and the “ThT relative fluorescence units (fibril formation)” value ([8]; His-CsgA with 0.5 mg/ml antibody) was “significant reduction in the relative fluorescence units”. The Biofilm mass (S. Typhimurium biofilm [1]; 0.5 mg/ml ALZ.3H3 during growth, then antibiotic treatment (ampicillin) for additional 24 hours) was “significant reduction in the biofilm mass to the levels below detection”.

B2: 4A6: human anti-amyloid mAb cloned from B cells of an Alzheimer's patient; heavy chain SEQ ID NO:57, light chain SEQ ID NO:59 (antibody, V domains shown)
VH: QVQLVQSGAEVKKPGASMRVSCKASGYTYTAYYIHWMRQAPGQGLEWMGWINPHIGSTNYAEKFRGRVTLTRDTSIKTAYMDLDRLTSDDTAIYYCARVRAPRSISGTLNSYGMDVWGQGTTVAVSS
VL: DIVMTQSPSSLSASVGDRVVITCRASLRIGTFLNWYQQTQGRAPKLLVSSASTLQSGVPSRFSGSGSGTDFTLTINSLQPEDFATYYCQQSYSTTWTFGQGTKVELK
modifications: Chemically Synthesized, ALZ.4A6 Heavy Chain; Chemically Synthesized, ALZ.4A6 Light Chain
B2 was tested, and the “Binding preference among Aβ42 conformers” value (Aβ42 conformers) was “preferentially bind Aβ fibrils”, the Kd (Aβ42 conformers; C-terminal biotinylated ADDLs/globulomers, read-out: Calculated affinity constant (KD), CTB oligo) was > 2000 nM and the Kd (Aβ42 conformers; N-terminal biotinylated monomers, read-out: Calculated affinity constant (KD), NTB mono) was > 2000 nM.

B3: 4G1: human anti-amyloid mAb cloned from B cells of an Alzheimer's patient; heavy chain SEQ ID NO:61, light chain SEQ ID NO:63 (antibody, V domains shown)
VH: EEHLVESGGALVQPGGSLRLSCEASGFTFRSYWMTWVRQAPGKGLEWLANIKQDGSDYYYVDSVKGRFTISRDNAKNTLYLQMNNLRADDTAVYFCARDARYRDTTWPQYYFYYFMDVWGKGTTVTVSS
VL: DIQLTQSPSSLSASIGDRVTVTCRASQSISNYLNWYQQKPGKAPKLLIYAASNLHTGVPSRFSGSGSGTHFTLTISSLQPEDFATYYCQLSYNNPRTFGPGTTVDIR
modifications: Chemically Synthesized, ALZ.4G1 Heavy Chain; Chemically Synthesized, ALZ.4G1 Light Chain
For B3, the “Binding to Tau PHF” value [5] was “notable for binding to Tau PHF”.
